From the supplement of paper PMC12042874
± gives the uncertainty stated by the source.

Assay: amyloid nucleation score (Sup35N fusion, yeast selection) (log enrichment); library NNK3; higher = more nucleation; inactive = no reads after selection
Outline: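 The nucleation score is a DiMSum log enrichment of output over input reads, centred on the mode score of non-aggregating sequences. Sequences under 100 input reads were excluded, and reads came from Illumina sequencing of plasmid inserts. Psi-negative yeast expressing Sup35N fused to peptides of 20 random codons were induced with 100 μM copper sulfate for 24 hours and grown 7 days at 30°C on medium lacking adenine and uracil. Random libraries had three technical output replicates.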

Substance | amyloid nucleation score
VDNHACPWTGGLHFRKLWNG | inactive
DLSREQLGCVVGVQAECMKG | 0.37 ± 0.41
AVINVILIIVSECRNSN | 1.9 ± 0.075
FRRSVK | inactive
RSNVVAQMYQKMLLSRYCTI | 0.354 ± 0.27
NFRVLVVNVKTFLMVVKVMF | inactive
WSSWSRS | inactive
INWYIHFRPLWQGFR | inactive
FLIPYKRQIAQRRYVSLE | inactive
RNIRYLTLYQVTYLGRRRT | 2.25 ± 0.093
SMANFTAETSDIRINFIVSM | 0.779 ± 0.14
ESWCM | inactive
RLSGSEKVELM | inactive
YKQCN | inactive
LTICFVSYVTVGDAGTMTPR | 1.62 ± 0.099
CFNNKVVNTWRICMVGLSLS | inactive
HSVIIAAMLSEISVSGLISG | inactive
FLLVTSRSEEAPLATETYRL | inactive
VVGQKTIVGTLIHFSFKVLA | 1.26 ± 0.14
SFWTQ | inactive
PTHLCFLQFTVAIFVSGIRA | 0.851 ± 0.12
FYKRLSMSMIWFLLYLCTDM | inactive
CRDSWFWSV | inactive

Substance | amyloid nucleation score
KTQDKITGFLTVLWLRKLVP | inactive
TCLWFLFIKRSSRDSEIWS | 0.209 ± 0.53
IMVVQYTWDWPGCCWIRWYL | inactive
IGVKSYWLRRSYLLFKYWMV | inactive
CYVWSTALCVNISCGSSTAE | 2.7 ± 0.054
KCISSRARK | inactive
YPWVYLAGYFHFFDELVGIF | inactive
GIVILLNYHPIRLF | 2.2 ± 0.068
VILMEDKSLMSWTRTIIVSM | inactive
WELSRYVRGLLFEFTLCLFV | inactive
DIERGFGDSCKNGHFAVGSV | -0.629 ± 1.1
IKSGFW | inactive
IFLVVPGHDLWNCRRS | inactive
MSVTITGALQVVTKVPANMI | 0.593 ± 0.2
SCRWMTMCAINSP | 0.726 ± 0.2
RSLTLW | inactive
YWFIAQAYKGRCVGSTVDKR | inactive
SCFISSMYFASWKFRISNGV | inactive
ARLSLWS | 0.733 ± 0.31
STIQSHCYKVVGV | inactive
YRILRRYSDPAHEDIKRCTL | inactive
FFPAMRTCWGKSGCARPYA | inactive
VMCLVSRPPQWSVLDVSTIM | inactive

Substance | amyloid nucleation score
CCGEHRVGQWV | 0.157 ± 0.27
SIIVTVQLWYVGV | 0.422 ± 0.36
CLRRVPLQRSSFLSVNLKLM | inactive
RKILVVFLSWFNFKVYSNSM | inactive
KWLYTDYRVISSHILKHLSA | inactive
IMNCVLMKDIWYSVFNHR | 2.44 ± 0.067
RFIVANHLGGVYLQE | inactive
NVWQFRFANRSCWFRLDIVC | inactive
FWFHLADMVECKCIDVLYYL | inactive
KQKWIPYSLCFFTPVR | inactive
YKVILTCSKC | inactive
RMEKIRTKVNSVTDSSWKSR | inactive
SVIIRRGTSQPNRVSWNKVK | inactive
NYYSGMRLSQNKKTST | 0.701 ± 0.11
HCSCDGAIRYDILQSNHKE | inactive
WHAFRLMWDSNMLLLRGSVV | inactive
SRTSYYMPTIPCMMPMN | inactive
CPLLSGFDESWDVEYDAQGD | inactive
NNNISFEEWFPS | inactive
FELFKKGRSI | 0.898 ± 0.23
QSNEASCSGCLISKVLKNDN | inactive
GSWSVRLPLIWTKY | inactive
YRDRYLDPLWAD | inactive

Substance | amyloid nucleation score
HGMGYRAIFIFNLISQPRLE | 2.52 ± 0.078
CLYKSFLIS | inactive
CFGCVWLTITTNFPTVLFRG | inactive
SMWYASFTYESYLCLFKESR | inactive
MACGGIKTIDTWNGDKFNVQ | inactive
LLGTEIWGCRRISHSGVMRW | -0.009 ± 0.43
ISYNTVRYRYGFVYNRLLPW | inactive
RRALYKLSSKESWPVDCNSV | inactive
LVTPSSTALFWSNFLWSELP | inactive
FSVDYQHRCQGQYPYIWYSN | inactive
GNYRLSLHVVL | 1.21 ± 0.18
ENTAYWDLSGRLANQLGWRL | inactive
TFSNNYPFSRWGCFSVLAV | inactive
ALEFRSTENTSSSG | -0.223 ± 0.73
DWFSMVSRSGVDLKSVKRFG | inactive
CLTYHSCIFRVHLFTISINV | inactive
SYVVSQPFSHRYWESLTMAL | inactive
HGCYFYYSCTFYC | 3.29 ± 0.08
RMRDRSGMGRTFHHGTQTTV | inactive
NYALWFANI | inactive
TSLGNGVSHGTLGFILTVNT | inactive
QDYTWVFEVSWAPKGGNLNV | inactive
PSVFVRVLEKNRDLMMRTAS | inactive

Substance | amyloid nucleation score
FVDLIRLCMCFVRMSQSLRT | inactive
NRSEEIFVSSATELTRLIVH | inactive
NDNSSATRSHSGLATRGGLV | inactive
YVFGNWLLCFEHTKMH | 1.1 ± 0.14
VPRVSSTQDCNRLILRKVCL | inactive
RSHGVLNLILCSPFLSDTGQ | 2.78 ± 0.074
GFIQRKNQRGVKKCRESYYY | inactive
NWFWLF | inactive
LSFVCTEETHGTNDSAGYNF | inactive
IWWKNIGCAKYWVIPLRQWA | inactive
FRNWIWVLYEV | inactive
LNVRAVFIVTRISVSYSRAR | 0.081 ± 0.52
LDFWRESVGAKE | inactive
ALCGNHLKCYKYSGAWRAV | inactive
FGGVGAW | inactive
VLLARIDAVFITVLR | 1.25 ± 0.12
VMYVVYFHELVYYR | inactive
VDRVYTLREFEVHGGTWFGV | inactive
NFVQFSTTISFDHNCHMVGC | inactive
CKMRYEDESWFKWVVDLSFN | inactive
NSLDSRMYGI | inactive
ILCFGLLN | inactive
GSLKPMFDRSCFFNIKAIML | inactive

Substance | amyloid nucleation score
LAAIDERPS | inactive
YDWMFLYPTSIS | 0.319 ± 0.18
VVRYHSMYKDCYFLKRFVIL | inactive
LGKRVGCNCICAPRSAGDGI | inactive
ADLPVIHNNKRLVVVWHWLN | inactive
VKNFLGY | inactive
HFLFRVRRGTWK | 0.396 ± 0.34
VYDNNYINFRSLLYMTKVSN | inactive
SSCMAFIMGWKYITMD | inactive
DTVMGSCDEFYLFASRHLCL | inactive
KAFFESMFWV | inactive
YWLSPDKICTYYLVWVRRAP | inactive
DSSKV | inactive
TIYNEGCVCKVYKESLGGSA | inactive
RTFPLTLRSSHSPFKPLMFL | inactive
GLRVTH | inactive
YLVYRNVTMVCPDRQH | 0.375 ± 0.27
GVRLAWVTSCCRV | inactive
EPCSLPTSGPMGMVGNIKSG | inactive
RSNICQFLKDFYKRCRKLF | inactive
AIALLSPSDYVHSLGFHMVA | inactive
LCPHPPFLCLVQQRFTTGSG | -0.123 ± 0.33
TWSSLFMIFQYTCAGCWDFK | 1.52 ± 0.068

Substance | amyloid nucleation score
SRALDGYKVPRFWIVRARGR | inactive
SPDTARTH | inactive
DSQVSTTGVMEDRYLPILCF | inactive
EFVSDLDTDEVGLHCFCWCP | inactive
LSCMNRTQCHASFSLPL | inactive
GQFML | inactive
YRLSLRH | inactive
NRSSKWVISYRATICLLPMD | inactive
IEVVYNLFWSRTFGAFVTKV | inactive
TAKTRC | -0.272 ± 0.96
YSACSSGVPRCLDMSRATVE | -0.055 ± 1.1
VYRERPMSKEGRCIEWHNLA | inactive
MWGSM | inactive
RKNLWLVTTGNSARDMLSKM | inactive
MSLIRYKLG | inactive
SFSELVSAASKTQTVCRRKC | inactive
SPVIKRYCILM | inactive
ANRLC | inactive
FSDRRSINPELEF | inactive
YNERLALLGLMVSLNVSSHS | inactive
PRSVVMYNNFINWYKTHKYY | 1.62 ± 0.067
LFVLELVRIWVTYNWCSVSF | inactive
